Here are results for 42 variants from the RNAGym collection of RNA variant scans (doi:10.1073/pnas.2313332121).

The labels stand for the following.
B1: TPR t1 (parent)
chain: GACCAAUCUGCCCUCAGAGCUCGAGAACAUCUUCGGAUGCAGAGGAGGCAGGCUUCGGUGGCGCGAUAGCGCCAACGUCCUCAACCUCCAAUGCAUCCCACCACAUGAUGAUGCCUGAAGAGCCUUGGUUUUUUG

This series covers variants of B1. Kind of series: polymerase ribozyme fitness, log enrichment relative to wild type (log ratio); higher = more active; in vitro selection for triplet polymerase activity. The method in brief:
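Input and output libraries were sequenced on Illumina after a single in vitro selection round, run in triplicate on PCR-built, transcribed mutant libraries of each subunit of a heterodimeric triplet polymerase ribozyme. Selection annealed libraries to a biotinylated primer, the partner subunit and triplets, incubated them frozen at −7 °C, then gel-excised extended constructs for streptavidin-bead capture and RT-PCR. Genotypes with ≥10 input reads and ≥1 read per output were kept. Fitness is the logarithm, taken in base 2, of genotype enrichment divided by wild-type enrichment, using inverse-variance-weighted replicate averages.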
For GACCAAUCUGCCCUUAGAGCUCGAGAACAUCUUCGGAUGCAGAGGAGGCAGGCUUCUGUGGCGCGAUAGCGCCAACGUCCUCAACCUCCAAUGCAUCCCACAACAUGAUGAUGCCGGAAGAGGCUUGGUUUUUUG, the “polymerase ribozyme fitness (log ratio)” value is -4.08.
For the variant GACCAAUCUGCCCUUAGAGCUCGAGAACAUCUUCGGAUGCAGAGGAGACAGGCUUCAGUGGCGCGAUAGCGCCAACGUCCUCAACAUCCAAUGCAUCCCACCACAUGAUGAUGCCUGAAGAGCCUUGGUUUUUUG, the “polymerase ribozyme fitness (log ratio)” value is -3.37.
Regarding GACCAAUCUGCCCUUAGAGCUCGAGAACAUCUUCGGAUGCAGAGGAGGCAGGCUUCGGUGACGCGAUAGCGCCAACGUCCUUAAAGUCCAAUGCAUCCCACCACAUGAUGAUGCCUGAAGAGCCUUGGUUUUUUG, the “polymerase ribozyme fitness (log ratio)” value is -2.18.
Take GACCAAUCUGCCCUUAGAGCUCGAGAACAUCUUCGGAUGCAGAGGAGGCAGGCUUCGGUGGCGCGAUAGCGCCAACGUCCUCAACCUACACUGCAUCCCACCACAUGAUGAUGCCUGAAGAGCCUUGGUUUUUUG: the “polymerase ribozyme fitness (log ratio)” value is -2.47.
As to GACCAAUCUGCCCUUAGAGCUCGAGAACAUCUUCGGAUGCAGAGGAGGCAGGCUUCGGUGGCGCGAUAGCGCCAACGUCCUCAACCUUCAAUGCAUCCCACCACAUGAUGAUGCCUGGAGAGCCUUGGUUUUUUG, the “polymerase ribozyme fitness (log ratio)” value was -1.82.
Turning to GACCAAUCUGCCCUUAGAGCUCGAGAACAUCUUCGGAUGCAGAGGAGGCAGGCUUCGGUCGCGCGAUAGCGCCAACGUCCUCAACCUCCAUUGCAUCCCACCACAUGAUGAUGCCUGAAGAGCCUUGGAUUUUUG, the “polymerase ribozyme fitness (log ratio)” value was -4.69.
Take GACCAAUCUGCCCUUAGAGCUCGAGAACAUCUUCGGAUGCAGAGGAGGCAGGCUUUGGUGGCGCGAUAGCGCCAACGUCCUCAACCGCCAAUGCAUCCCACCACAUGAUGAUACCUGAAGAGCCUUGGUAUUUUG: the “polymerase ribozyme fitness (log ratio)” value was -3.68.
The figure for GACCAAUCUGCCCUUAAAACUCGAGAACAUCUUCGGAGGCAGAGGAGGCAGGCUUCGGUGGCGCGAUACCGCCAUCGUCCUCAACCUCCAAGGCAUCCCACCACAUGACGAUGCCUGAAGAGCUUUGGUUUUUGG is -5.8; for GACCAAUCUGCCCUUAGAGCUCGAGAACAUCUUCGGAUGCAGAGGAGGCAGGGUUCGGUGGCGAGAUAGCGCCAACGUCCUCAACCUCCAAUGCAUCCCACCAAAUGAUGAUGCCUGAAGAGCUUUGGUUUUUUG it is -6.1.
Consider GACCAAUCUGCCCUUAGAGCUCGAGAACAUCUUCGGAUGCAGAGGAGGCAGGCUUCGGUGGCGCGAUAGCGCCAACGUCCUCAACCUCCAAUGCAUCUCACCACAUGAUGAUGCCUGAAGAGCCUUGGUUUUUUG, for which the “polymerase ribozyme fitness (log ratio)” value is -2.28.
Consider GACCAAUCUGCCCUUAGAGCUCGAGAACAUCUUCGGAUGCAGAGGAUGAAGGCUUCGGUGGCGCGAUAGCGCCAACGUCCUCAACAUCCAAUGCAUCCCACCACACGAUGAUGCCUGAAGAGCCUUGGUUUUUUG, for which the “polymerase ribozyme fitness (log ratio)” value is -2.3.
As to GACCAAUCUGCCCUUAGAGCUCGAGAACAUCUUCGGAUGCAUAGGAGGCAGGCUUCGGUGGCGCGAUAGCGCCAACGUCCUCAACCUCCAAUGCAUCCCACCACAUGAUGAUGCCUGAAUAGCCUUCGUUUUUUG, the “polymerase ribozyme fitness (log ratio)” value is -2.69.
As for GACCAAUCUGCCCUUAGAGCUCGAGAACAUCUUCGGAUGCAGAGGAGGCAGGCUUCGGUGGCGCGAUAGCGCCAAUGUCCUCAACCUCCAAUGCAUCCCUCCACAUGAUGAUGCCUGAACAGCCUUGGUUUUUUG, the “polymerase ribozyme fitness (log ratio)” value is 0.0455.
On to GACCAAUCUGCCCUUAGAGCUCGAGAACAUCUUCGGAUGCAGAUGAGGCAGGCUUCGGUGGCGCGAUAGCGCCAACGUCCUCAAACUCCAAUGUAUCCCACCACAUGAUGAUGCCUCUAGAGCCUUGGUUUUUUG, for which the “polymerase ribozyme fitness (log ratio)” value was -4.78.
As for GACCAAUCUGCCCUUAGAGCUCGAGAACAUCUUCGGAUGCAGAGGAGGCAGGCUUUGGUGGCGCGAUAGCGCCAACGUCCUCAACCUCCAAUGCAUCCCACCACAUGAUGAUGCCUCAAGAGCCUUGGUUUUUUG, the “polymerase ribozyme fitness (log ratio)” value is -1.61.
Consider GACCAAUCUGCCCUUAGAGCUCGAGAACAUCUUAGGAUGCAGAGGAGGCAGGCUUCGGUGGCGCGAUACCGCCAACGUCCUCAACCUCCAAUGCAUCCCACCACAUGAUGAUGCCUGAAGAGCCUUGGUUUUUUG, for which the “polymerase ribozyme fitness (log ratio)” value is -5.57.
On to GACCAAUCUGCCCUUAGAGCUCGAGAACAUCUUCGAAUGCAGAGGAGGCAGGCUUCGGUGGCGCGAUAGCGCCAACGUCCUCAACCUCCAAUGCAUCCCACCACAUGAUGAUGCCUGAAGCGCCUUGGUUUUUUG, for which the “polymerase ribozyme fitness (log ratio)” value worked out at 0.213.
In the case of GACCAAUCUGCCCUUAGAGCUCGAGAACAUCUUCGGAUGCAAAGGAGACAGGCUUCGGUGGCGCGAUAGCGCCAACGUUCUCAACCUCCAAUGCAUCCCACCACCUGAUGAAUCCUGAAGAGCAUUGGUUUUUUG it was -4.71; in that of GACCAAUCUGCCCUUAGAGCUCGAGAACAUCUUCGGAUGCAGAGGAAGCAGGCUUCGGUGGCGCGAUAGCGCCAACGUCCUCAACCUCCAAUGCAUCCCACCACAUGAUGAUCCCUGAAGCGCCUUGGUUUUUUG, -4.25.
The figure for GACCAAUCUGCCCUUAGAGCUCGAGAACAUCUUCGGAUGCAGAGGAGGAAGGCUUCGGUGGCGCGAUAGCGACAACGUCCUCAACCUCCAAUGCAUCCCACCACAUGAUGAUGCCUGAAGAGCCUUGGCUUUUAC is -1.14; for GACCAAUCUGCCCUUAGAGCUCGAGAACAUCUUCGGAUGCAGAGGAGGCAGGCUUCGCUGGCGCGAUAGCGCCAACGUCCUCAACCUCCAAUGCAUCCCACCACAUGAUGAUGCCUGAACAGCCUUGGUUUUUUG it is 0.694.
As to GACCAAUCUGCCCUUAGAGCUCGAGAACAUCUUCGGAUGCAGACGAGGCAGGCUUCGGUGGCGCGAUAGCGCCAACGUCCUCAACCUCCAAUACAUCCCACCACAUGAUGAUGCCUGAAGAGCCUUGGUUUUUUG, the “polymerase ribozyme fitness (log ratio)” value was -2.63.
The figure for GACCAAUCUGCCCUUAGAGCUCGAGAACAUCUUCGGAUGCAGAGGAGGCAGGAUUCGGUGGCGCGAUAGCGCCAACGUCCUCCACCUCCAAUGCAUCCCACCACAUGAUGAUGCCUGAAGAGCCUUGGUUUUUUG is -1.46; for GACCAAUCUGCCCUUAGAGCUCGAGAACAUCUUCGGAUGCAGAGGAGGCAGGCUUCGGUGGGGCGAUAGCGCCAACGUCCUCAAACUCCAAUGCAUCCCACCACAUGAUGAUGCCUGAAGAGCCUUGGUUUUUUG it is -4.14.
As for GACCAAUCUGCCCUUAGAGCUCGAGAACAUCUUCGGAUGCAGAGGAGGCAGGCUUCGGUGGCGCGAUAGCGCCAACGUCCUCAACCUCCAAUGCAUCCCAUCACAUGAUGAUGCCUGAAGAGCCUUGGUUUUUUG, the “polymerase ribozyme fitness (log ratio)” value is -1.84.
As for GACCAAUCUGCCCUUAGAGCUCGAGAACAUCUUCGGAUGCAGAGGAGGCAGGCUUCGGUGGCGCGAUAGCGCCAACGUCCUCAACCUCCAAUGCAUCCCAACACAUGAUGAUGCCUGAAGAGCCUUGGUUUUUUG, the “polymerase ribozyme fitness (log ratio)” value is -2.35.
Turning to GACCAAUCUGCCCUUAGAGCUCGAGAACAUCUUCGGAUGCAGAGGAGGCAGGCUUGGGUGUCGCGGUAGCGCUAACGUCCUCAACCUCCAAUGGAUGACACCACAUGAUGAGGCCUGACGAGCCUUGGUUUUUUC, the “polymerase ribozyme fitness (log ratio)” value is -5.66.
In the case of GACCAAUCUGCCCUUAGAGCUCGAGAACAUCUUCGGAUGCAGAGGAGGCAGUCUUCGGUGACGCGAUAGCGCCAACGUCCUCAACCUCCAAUGCAUCUCACCACAUGAUGAUGCCUGAAGAGCCAUGGUUAUUUG it was -3.15; in that of GACCAAUCUGCCCUUAGAGCUCGAGAACAUCUUAGGAUGCAGAGGAGGCAGGCUUCGGUCGCGCGAUAGCGCCAACGUCCUGAACCUCCAAUGCAUCCCACCACGUGAUGAUUCCUGAAGAGCCUUGGUUUUUUG, -6.14.
For GACCAAUCUGCCCUUAGAGCUCGAGAACAUCUUCGGAUGCAGAGGAGGCAGGCUUCGGUUGCGCGAUAGCGCCAACGUCCUCAACCUCCAAUGCAUCCCACCACAUGAUGAUGCCUGAAGAGCCUUGGUUUUUUG, the “polymerase ribozyme fitness (log ratio)” value was -1.08.
As to GACCAAUCUGCCCUUAGAGCUCGAGAACAUCUUCGGAUGCAGAGGAGGCAGGGUUCGGUGGCGCGAUAGCGCCAACGUCCUAAACCUCCAAUGCAUCCCACCACAUGAUGAUGCCUGAAGAGCCUUGGUUUUUUG, the “polymerase ribozyme fitness (log ratio)” value is -1.78.
Regarding GACCAAUCUGCCCUUAGAGCUCGAGAACAUCUUCGGAUGCAGAGGAGGCAGGCUUCGGUGGAGCGAUAGCGCCAACGUCCUCAACUUCCAAUGCAUCCCACCACAUGAUGCUGCCUGAAGAGCCUUGGGUUUUUG, the “polymerase ribozyme fitness (log ratio)” value was -4.97.
With GACCAAUCUGCCCUUAGAGCUCGAGAACAUCUUCGGAUUCAGAGGAGGCAGACUUCGGUGGCGCGAUAGCGCCAACGUCCUCAACCUCCAAUGCAUCCCACCACAUGAUGAUGCCUGAAGAGCCUUGGUUUUUUG, the “polymerase ribozyme fitness (log ratio)” value is -3.14.
The figure for GACCAAUCUGCCCUUAUAGCUCGAGAACAUCUUCGGAUGCAGAGGAGGCAGGCUUCGGUGGCGCGAUAGCGCCCACGGCUUCAACCUCCAAUGCAUCCCACCACAUGAUGAUGCAUGAAGAGCCUUGGUUUUUUG is -2.32; for GACCAAUCUGCCCUUAGAGCUCGAGAACAUCUUCGGAUGCAGAGGAGGCAGGCUUCGGUGGAGCGAUAGCGCCAACGUACUCAACCUCCAAUGCAUCCCACCACAUGAUGAUGCCUGAAGAGCCUUGGUUUUUUG it is -4.11; for GACCAAUCUGCCCUUAGAGCUCGAGAACAUCUUCGGAUGCAGAGGAGGCAGGCUUCGGUGGCGCGAUAGCGCUCACGUCCUCAACCUCCAAUGCAUCCCACCACAUGAUGAUGCCUGAAGAGCCUUGGUUUUUUG it is -1.46.
Take GACCAAUCUGCCCUUAGAGCUCGAGAACAUCUUCGGAUGCAGAGGAGGCAGGCUUCGGUGGCGCGAUAGCGACAACGUCCUCCACCUCUAAUGCAUUCCACCACAUGAUGAUGCCUGAAGAGCCUUGGUUUUUUG: the “polymerase ribozyme fitness (log ratio)” value is -3.4.
On to GACCAAUCUGCCCUUAGAGCUCGAGAACAUCUUCGGAUGCAGAGGAGGCAGGCUUCGGUGGCGCGAUAGCGCUAACGUCCUCGACCUCCAAUGCAUCCCACCACAUGAUGAUGCCUGAAGAGCCUUGGUUUUUUG, for which the “polymerase ribozyme fitness (log ratio)” value was -2.56.
For the variant GACCAAUCUGCCCUUAGAGCUCGAGAACAUCUUCGGAUGUAGAGGAGGCAGGCUUCGGUGUCGCGAUAGCGCCAACGUCCUCAACCUCCAAUGCAUCCCACCACAUGAUGAUGCCUGAAGAGCCUUGGUUUUUUG, the “polymerase ribozyme fitness (log ratio)” value was -0.881.
Turning to GACCAAUCUGCCCUUAGAGCUCGAGAACAUCUUCGGAUGCAGAGGAGGCAGGCUUCGGUGGCGCGAUAGCGGCAACGUCCUCAACCUCCAAUGCAUCCCACCACAUGAUGAUGCCUGAAGAGCCUUGGUUUUUUG, the “polymerase ribozyme fitness (log ratio)” value is -1.64.
With GACCAAUCUGCCCUUAGAGCUCGAGAACAUCUUCGGAUGCAGAGGAGGCAGCCUUCGGUGGGGCGAUAGCGCCAACGACCUCAACCUCCAAUGCAUCCCACCACAUGAUGAUGCCUGAAGAGCCUUGGUUUUUUG, the “polymerase ribozyme fitness (log ratio)” value is -3.9.
Consider GACCAAUCUGCCCUUAGAGCUCGAGAACAUCUUCGGAUGCAGAGGAGGCAGGCUUCGGUGGCGCGAUAGCGCCAACGUACUCAACCUCCAAUGCAUCCCACCACAUGAUGAUGCCUGAAGAGCCUUGGUUUUUUG, for which the “polymerase ribozyme fitness (log ratio)” value was -2.26.
